Laboratory results published in paper PMC1540728.

T1: hnRNP F qRRM3 (Homo sapiens, UniProt P52597 277-381)
T1 sequence: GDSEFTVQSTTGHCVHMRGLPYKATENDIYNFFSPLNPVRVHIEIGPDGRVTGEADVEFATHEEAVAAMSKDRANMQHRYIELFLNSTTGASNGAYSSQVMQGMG

T2: hnRNP F qRRM2 (Homo sapiens, UniProt P52597 103-194)
T2 sequence: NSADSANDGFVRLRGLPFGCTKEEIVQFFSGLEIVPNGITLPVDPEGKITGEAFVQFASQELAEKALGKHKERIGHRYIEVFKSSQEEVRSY

T3: hnRNP F qRRM1-2 (Homo sapiens, UniProt P52597 1-194)
T3 sequence: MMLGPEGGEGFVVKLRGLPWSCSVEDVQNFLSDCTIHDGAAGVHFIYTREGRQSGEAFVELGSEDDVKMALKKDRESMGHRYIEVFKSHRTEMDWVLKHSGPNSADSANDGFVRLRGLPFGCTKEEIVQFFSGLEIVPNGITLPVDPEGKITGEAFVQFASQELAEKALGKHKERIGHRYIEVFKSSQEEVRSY

B1: Bcl-x third G-tract RNA (structured_RNA)
RNA: CUGGGGU
B2: Fox RNA-binding site UGCAUG (ssRNA)
RNA: UGCAUG
B3: GGG RNA (ssRNA)
RNA: GGG
B4: Bcl-x G-tracts 1-2 RNA (structured_RNA)
RNA: CGGGAUGGGGUA

Columns and labels:
Assay in all cases: NMR titration
hnRNP F qRRM3 = target: T1, hnRNP F qRRM3
hnRNP F qRRM2 = target: T2, hnRNP F qRRM2
hnRNP F qRRM1-2 = target: T3, hnRNP F qRRM1-2

Binder | binding result (hnRNP F qRRM2) | further results
B1 | – | binding result (hnRNP F qRRM3): no binding
B2 | no binding | –
B3 | binds | –
B4 | – | binding result (hnRNP F qRRM1-2): binds
